From patent US20100311696A1, “TOPICAL SKIN TREATMENT COMPOSITION” (priority 2002, published 2010) come the findings set out here.

A short description of series [1]: Skin penetration after topical application of the somatotropin composition. Particulars: composition topically applied. The format is in vivo. The procedure:
(§1) A drug delivery composition formulated with somatotropin was formulated in one trial with 85% phosphatidylcholine to which lipoic acid and ascorbyl palmitate were added.

The nature of series [2]: Dispersion and stability of somatotropin in phosphatidylcholine. Particulars: 85% phosphatidylcholine with lipoic acid and ascorbyl palmitate. It counts as physicochemical. The procedure: as §1
The nature of series [3]: RP-HPLC and HPCE stability analyses of insulin standards and stable insulin compositions, Example 2. Particulars: stored at room temperature. The format is physicochemical.
The nature of series [4]: RP-HPLC and HPCE stability analyses of insulin standards and insulin compositions, Example 1. The format is physicochemical. The note with it: stored at room temperature. How it is done: This mixture was then divided in half, half of which was stored at 4° C., and the other half stored at room temperature.

With “Somatotropin: Somatotropin (pituitary growth hormone) formulated with 85% phosphatidylcholine, lipoic acid and ascorbyl palmitate”, the skin penetration entry in series [1] is recorded as “penetrate the skin well”. In addition, in series [2], the dispersion in phosphatidylcholine entry is on record as “readily dispersed” and the stability in phosphatidylcholine result is listed as “remained stable”.
With “insulin standards: Insulin in 0.01 N HCl: 1 mg/ml Sigma insulin (Example 1), 5 mg/ml (Example 2)”, the “time at which denaturing started (RP-HPLC and HPCE)” value in series [3] is reported as at most 1 week; in series [4], at most 7 days.
